Laboratory results published in patent US20090291890A1 (published 2009).
Several values for one entry are separate records, joined by “and”; a condition that tells them apart may be missing. Equal entries are not always repeated.

T1: soluble tissue factor (recombinant human Coagulation Factor III/soluble tissue factor; R&D Systems) (human)
T1 chain: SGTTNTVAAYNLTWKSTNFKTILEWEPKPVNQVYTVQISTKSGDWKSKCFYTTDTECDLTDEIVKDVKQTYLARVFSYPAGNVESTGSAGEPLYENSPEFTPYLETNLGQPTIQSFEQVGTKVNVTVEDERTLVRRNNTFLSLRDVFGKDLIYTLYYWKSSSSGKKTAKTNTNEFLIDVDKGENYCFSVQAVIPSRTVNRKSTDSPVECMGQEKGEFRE

T2: Mesyl-dFPR-ACC
T2 sequence (peptide, N-terminal mesyl; D-Phe at position 1 (dF); C-terminal ACC fluorophore): FPR


Tests used:
[1] = target: T1, soluble tissue factor (recombinant …); assay: SPR (Biacore T100), sTF on chip, two-state fit
Mesyl-dFPR-ACC = target: T2, Mesyl-dFPR-ACC
[2] = target: T1, soluble tissue factor (recombinant …); assay: SPR (Biacore T100), sTF on chip, two-state fit; FVIIa made in CHOX cells
[3] = target: Factor X (Homo sapiens (Human)) (UniProt P00742)
Sequence of Factor X (Homo sapiens (Human)) (P00742 41-488 limits assumed): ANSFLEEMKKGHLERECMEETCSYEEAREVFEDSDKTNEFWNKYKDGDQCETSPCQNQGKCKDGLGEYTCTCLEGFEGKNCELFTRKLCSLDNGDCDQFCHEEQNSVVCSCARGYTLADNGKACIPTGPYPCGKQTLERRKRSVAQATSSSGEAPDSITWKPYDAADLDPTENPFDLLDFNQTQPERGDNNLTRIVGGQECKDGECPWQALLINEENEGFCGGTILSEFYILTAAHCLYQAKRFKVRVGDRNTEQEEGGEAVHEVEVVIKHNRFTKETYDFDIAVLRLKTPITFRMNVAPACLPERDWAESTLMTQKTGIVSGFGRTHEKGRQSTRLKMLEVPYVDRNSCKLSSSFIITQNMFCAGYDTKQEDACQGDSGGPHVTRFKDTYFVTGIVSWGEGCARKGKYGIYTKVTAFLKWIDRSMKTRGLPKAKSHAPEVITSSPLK

Affinity Kd-WT/Kd-mut [1]	Kd [1] [nM]	Activity (µmol/sec/µmol), specific activity for mesyl-dFPR-ACC (µmol/sec/µmol) (Mesyl-dFPR-ACC)	Affinity Kd-WT/Kd-mut [2]	Kd [2] [nM]	kcat/KM (M^-1s^-1), TF-dependent assay [3]	kcat/KM, TF-independent assay [3]	kcat/KM, TF-dependent assay [3] [M⁻¹ s⁻¹]	Binder
4.4	1.7	2.19	2.1	1.9	2.22e+08 M⁻¹ s⁻¹ and 1.65e+08 M⁻¹ s⁻¹	1860 M⁻¹ s⁻¹ and 4230 M⁻¹ s⁻¹		FVIIa V158D/T239V/E296V/M298Q (enzyme) ANAFLEELRPGSLERECKEEQCSFEEAREIFKDAERTKLFWISYSDGDQCASSPCQNGGSCKDQLQSYICFCLPAFEGRNCETHKDDQLICVNENGGCEQYCSDHTGTKRSCRCHEGYSLLADGVSCTPTVEYPCGKIPILEKRNASKPQGRIVGGKDCPKGECPWQVLLLVNGAQLCGGTLINTIWVVSAAHCFDKIKNWRNLIAVLGEHDLSEHDGDEQSRRVAQVIIPSTYVPGTVNHDIALLRLHQPVVLTDHVVPLCLPERTFSERTLAFVRFSLVSGWGQLLDRGATALVLQVLNVPRLMTQDCLQQSRKVGDSPNITEYMFCAGYSDGSKDSCKGDSGGPHATHYRGTWYLTGIVSWGQGCATVGHFGVYTRVSQYIEWLQKLMRSEPRPGVLLRAPFP
1.1	7.2		0.7	5.5				FVIIa H257A/Q286R (enzyme) ANAFLEELRPGSLERECKEEQCSFEEAREIFKDAERTKLFWISYSDGDQCASSPCQNGGSCKDQLQSYICFCLPAFEGRNCETHKDDQLICVNENGGCEQYCSDHTGTKRSCRCHEGYSLLADGVSCTPTVEYPCGKIPILEKRNASKPQGRIVGGKVCPKGECPWQVLLLVNGAQLCGGTLINTIWVVSAAHCFDKIKNWRNLIAVLGEHDLSEHDGDEQSRRVAQVIIPSTYVPGTTNHDIALLRLHQPVVLTDAVVPLCLPERTFSERTLAFVRFSLVSGWGRLLDRGATALELMVLNVPRLMTQDCLQQSRKVGDSPNITEYMFCAGYSDGSKDSCKGDSGGPHATHYRGTWYLTGIVSWGQGCATVGHFGVYTRVSQYIEWLQKLMRSEPRPGVLLRAPFP
3.9	2			1.8				FVIIa V158D/E296V/M298Q (enzyme) ANAFLEELRPGSLERECKEEQCSFEEAREIFKDAERTKLFWISYSDGDQCASSPCQNGGSCKDQLQSYICFCLPAFEGRNCETHKDDQLICVNENGGCEQYCSDHTGTKRSCRCHEGYSLLADGVSCTPTVEYPCGKIPILEKRNASKPQGRIVGGKDCPKGECPWQVLLLVNGAQLCGGTLINTIWVVSAAHCFDKIKNWRNLIAVLGEHDLSEHDGDEQSRRVAQVIIPSTYVPGTTNHDIALLRLHQPVVLTDHVVPLCLPERTFSERTLAFVRFSLVSGWGQLLDRGATALVLQVLNVPRLMTQDCLQQSRKVGDSPNITEYMFCAGYSDGSKDSCKGDSGGPHATHYRGTWYLTGIVSWGQGCATVGHFGVYTRVSQYIEWLQKLMRSEPRPGVLLRAPFP
			0.9	4.1			1.85e+08	FVIIa T239V/Q286R/M298Q/Q366N (enzyme) ANAFLEELRPGSLERECKEEQCSFEEAREIFKDAERTKLFWISYSDGDQCASSPCQNGGSCKDQLQSYICFCLPAFEGRNCETHKDDQLICVNENGGCEQYCSDHTGTKRSCRCHEGYSLLADGVSCTPTVEYPCGKIPILEKRNASKPQGRIVGGKVCPKGECPWQVLLLVNGAQLCGGTLINTIWVVSAAHCFDKIKNWRNLIAVLGEHDLSEHDGDEQSRRVAQVIIPSTYVPGTVNHDIALLRLHQPVVLTDHVVPLCLPERTFSERTLAFVRFSLVSGWGRLLDRGATALELQVLNVPRLMTQDCLQQSRKVGDSPNITEYMFCAGYSDGSKDSCKGDSGGPHATHYRGTWYLTGIVSWGNGCATVGHFGVYTRVSQYIEWLQKLMRSEPRPGVLLRAPFP
